{
  "source": "patent US20240052052A1",
  "about": "(ANTENGENE BIOLOGICS, published 2024)",
  "molecular_target": "T1, human CD24 (human, UniProt P25063 27-59, heavily glycosylated, GPI-anchored (as described in the background))",
  "T1 construct": "whole, on cells; Target of all cell-based FACS assays; also called hCD24; Cluster of differentiation 24",
  "T1 chain (looked up)": "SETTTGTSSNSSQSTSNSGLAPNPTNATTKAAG",
  "experiment": "flow cytometry, HT-29 and Nalm6 cells",
  "method": "Briefly, HT-29 or Nalm6 cells were washed three times using PBS and firstly incubated with humanized variants. After three times washing, secondary antibody was incubated with cells. MFI of the samples was analyzed with Flow Cytometry and cells-based affinity was calculated.",
  "data": [
    {"binder": "81A1F8-VH-21/VL-41 (antibody, V domains shown, humanized antibody based on 81A1F8; also called 81A1F8-2141) VH: QVQLVQSGAEVKKPGASVKVSCKASGYLFTGYYMNWVRQAPGQGLEWMGEINPNTGDTNNNQKFKARVTMTVDRSTSTAYMELSSLRSEDTAVYYCVRRDYGTSLDYWGQGTLVTVSS VL: DVQITQSPSTLSASVGDRVTITCRASKSINKYLAWYQQKPGKAPKLLIHSGSTLQSGVPSRFSGSRSGTEFTLTISSLQPDDFATYYCQQHNEYPITFGQGTKLEIK", "values": [
      {"measurement": "binding result", "value": "binds"}
    ]}
  ]
}
